Reference: patent US20110262474A1

Assays:
[1] = biological target: recombinant WT HIV-1 JRCSF gp120 core polypeptide (HIV-1 subtype B, strain JRCSF) (UniProt P20871); test: SPR (Biacore 2000), KA = ka/kd from a single-site fit; * best curve fit, dissociation slower than the limit of detection of the instrument
[2] = biological target: recombinant WT HIV-1 JRCSF gp120 full-length polypeptide (HIV-1 subtype B, strain JRCSF) (UniProt P20871); test: as above
[3] = biological target: HIV-1 1196 gp160 envelope protein on pseudovirus (HIV-1 subtype B, strain 1196); test: cell-based or functional assay
[4] = biological target: HIV-1 6535 gp160 envelope protein on pseudovirus (HIV-1 subtype B, strain 6535); test: cell-based or functional assay
[5] = biological target: HIV-1 92HT594 gp160 envelope protein on pseudovirus (HIV-1 subtype B, strain 92HT594); test: cell-based or functional assay
[6] = biological target: HIV-1 92RW020 gp160 envelope protein on pseudovirus (HIV-1 subtype A, strain 92RW020); test: cell-based or functional assay
[7] = biological target: HIV-1 93BR020 gp160 envelope protein on pseudovirus (HIV-1 subtype F, strain 93BR020); test: cell-based or functional assay
[8] = biological target: HIV-1 93BR029 gp160 envelope protein on pseudovirus (HIV-1 subtype F, strain 93BR029); test: cell-based or functional assay
[9] = biological target: HIV-1 93MW960 gp160 envelope protein on pseudovirus (HIV-1 subtype C, strain 93MW960); test: cell-based or functional assay
[10] = biological target: HIV-1 93TH305 gp160 envelope protein on pseudovirus (HIV-1 subtype E, strain 93TH305); test: cell-based or functional assay
[11] = biological target: HIV-1 BaL gp160 envelope protein on pseudovirus (HIV-1 subtype B, strain BaL); test: cell-based or functional assay
[12] = biological target: HIV-1 JRCSF gp160 envelope protein on pseudovirus (HIV-1 subtype B, strain JRCSF) (UniProt P20871); test: cell-based or functional assay
[13] = biological target: HIV-1 NL4-3 gp160 envelope protein on pseudovirus (HIV-1 subtype B, strain NL4-3); test: cell-based or functional assay
[14] = biological target: HIV-1 QH0692 gp160 envelope protein on pseudovirus (HIV-1 subtype B, strain QH0692); test: cell-based or functional assay
[15] = biological target: HIV-1 QZ4589 gp160 envelope protein on pseudovirus (HIV-1 subtype B, strain QZ4589); test: cell-based or functional assay
[16] = biological target: HIV-1 SF162 gp160 envelope protein on pseudovirus (HIV-1 subtype B, strain SF162); test: cell-based or functional assay
[17] = biological target: HIV-1 VLGCG4 gp160 envelope protein on pseudovirus (HIV-1 subtype G, strain VLGCG4); test: cell-based or functional assay
[18] = biological target: amphotropic MLV envelope protein on pseudovirus (amphotropic murine leukemia virus); test: cell-based or functional assay
[19] = biological target: chimeric gp120 core polypeptide variant L7-043CDC; test: SPR (Biacore 2000), KA = ka/kd from a single-site fit
[20] = biological target: chimeric gp120 core polypeptide variant L7-043; test: as above
[21] = biological target: recombinant WT HIV-1 JRCSF gp120 core polypeptide (HIV-1 subtype B, strain JRCSF) (UniProt P20871); test: as above
[22] = biological target: recombinant WT HIV-1 JRCSF gp120 full-length polypeptide (HIV-1 subtype B, strain JRCSF) (UniProt P20871); test: as above
[23] = biological target: chimeric gp120 core polypeptide variant L7-043; test: SPR (Biacore 2000), KA relative to the JR-CSF gp120 core row (= 1)
[24] = biological target: recombinant WT HIV-1 JRCSF gp120 core polypeptide (HIV-1 subtype B, strain JRCSF) (UniProt P20871); test: SPR (Biacore 2000), mAb captured on anti-human gamma chain antibody, gp120 injected
[25] = biological target: recombinant WT HIV-1 JRCSF gp120 full-length polypeptide (HIV-1 subtype B, strain JRCSF) (UniProt P20871); test: as above
[26] = biological target: chimeric gp120 core polypeptide variant L7-043CDC; test: SPR (Biacore 2000), mAb captured on anti-human gamma chain antibody, gp120 core injected

Substance: human monoclonal antibody IgG1b6
- Ka [1]: 6.32e+12 M⁻¹
- Ka [2]: 4.08e+11 M⁻¹

Substance: human monoclonal antibody IgG1b12
- IC50 neutralization titer of pseudovirus (luciferase entry assay) [3]: 0.48 µg/mL
- IC50 neutralization titer of pseudovirus (luciferase entry assay) [4]: 0.64 µg/mL
- IC50 neutralization titer of pseudovirus (luciferase entry assay) [5]: 0.02 µg/mL
- IC50 neutralization titer of pseudovirus (luciferase entry assay) [6]: 1.67 µg/mL
- IC50 neutralization titer of pseudovirus (luciferase entry assay) [7]: 2.08 µg/mL
- IC50 neutralization titer of pseudovirus (luciferase entry assay) [8]: 1.67 µg/mL
- IC50 neutralization titer of pseudovirus (luciferase entry assay) [9]: 0.06 µg/mL
- IC50 neutralization titer of pseudovirus (luciferase entry assay) [10]: 0.71 µg/mL
- IC50 neutralization titer of pseudovirus (luciferase entry assay) [11]: 0.01 µg/mL
- IC50 neutralization titer of pseudovirus (luciferase entry assay) [12]: 0.06 µg/mL
- IC50 neutralization titer of pseudovirus (luciferase entry assay) [13]: 0.01 µg/mL
- IC50 neutralization titer of pseudovirus (luciferase entry assay) [14]: 0.1 µg/mL
- IC50 neutralization titer of pseudovirus (luciferase entry assay) [15]: 0.03 µg/mL
- IC50 neutralization titer of pseudovirus (luciferase entry assay) [16]: 0.01 µg/mL
- IC50 neutralization titer of pseudovirus (luciferase entry assay) [17]: 0.04 µg/mL
- IC50 neutralization titer of pseudovirus (luciferase entry assay) [18]: > 2.5 µg/mL
- Ka [19]: 2.58e+08 M⁻¹
- Ka [20]: 3.8e+08 M⁻¹
- Ka [21]: 3.43e+07 M⁻¹
- Ka [22]: 3.62e+07 M⁻¹
- Fold Increase [23]: 11
- Ka [24]: > 1e+07 M⁻¹
- Ka [25]: > 1e+07 M⁻¹
- fold increase in b12 affinity against JRCSF gp120 core polypeptide [26]: > 7.5 fold
